According to US20210388087A1 (Chugai, published 2021):
Where a chain is given by its changes, count along the chain named.

B1: CE115HA000/GLS3000 F55D (antibody, IgG1, name in Kabat numbering, V domains shown)
VH: QVQLVESGGGVVQPGRSLRLSCAASGFTFSNAWMHWVRQAPGKGLEWVAQIKAKSNNYATYYAESVKGRFTISRDDSKNSLYLQMNSLKTEDTAVYYCRYVHYGAYYGVDAWGQGTTVTVSS
VL: DIVMTQSPLSLPVTPGEPASISCRSSQSLVHSNRNTYLHWYQQKPGQAPRLLIYKVSNRDSGVPDRFSGSGSGTDFTLKISRVEAEDVGVYYCGQGTQVPYTFGQGTKLEIK
notes: one-arm IgG1
B2: CE115HA000/GLS3000 H27dG (antibody, IgG1, name in Kabat numbering, V domains shown)
VH: B1 VH
VL: B1 VL with H31G, D60F
notes: one-arm IgG1
B3: CE115HA000/GLS3000 G89L (antibody, IgG1, name in Kabat numbering, V domains shown)
VH: B1 VH
VL: B1 VL with D60F, G94L
notes: one-arm IgG1
B4: CE115HA000/GLS3000 G91T (antibody, IgG1, name in Kabat numbering, V domains shown)
VH: B1 VH
VL: B1 VL with D60F, G96T
notes: one-arm IgG1
B5: CE115HA000/GLS3000 F55R (antibody, IgG1, name in Kabat numbering, V domains shown)
VH: B1 VH
VL: B1 VL with D60R
notes: one-arm IgG1
B6: CE115HA000/GLS3000 H27dE (antibody, IgG1, name in Kabat numbering, V domains shown)
VH: B1 VH
VL: B1 VL with H31E, D60F
notes: one-arm IgG1
B7: CE115HA000/GLS3000 G89H (antibody, IgG1, name in Kabat numbering, V domains shown)
VH: B1 VH
VL: B1 VL with D60F, G94H
notes: one-arm IgG1
B8: CE115HA000/GLS3000 G89E (antibody, IgG1, name in Kabat numbering, V domains shown)
VH: B1 VH
VL: B1 VL with D60F, G94E
notes: one-arm IgG1
B9: CE115HA000/GLS3000 G89F (antibody, IgG1, name in Kabat numbering, V domains shown)
VH: B1 VH
VL: B1 VL with D60F, G94F
notes: one-arm IgG1
B10: CE115HA000/GLS3000 G91A (antibody, IgG1, name in Kabat numbering, V domains shown)
VH: B1 VH
VL: B1 VL with D60F, G96A
notes: one-arm IgG1
B11: CE115HA000/GLS3000 F55N (antibody, IgG1, name in Kabat numbering, V domains shown)
VH: B1 VH
VL: B1 VL with D60N
notes: one-arm IgG1
B12: CE115HA000/GLS3000 F55Q (antibody, IgG1, name in Kabat numbering, V domains shown)
VH: B1 VH
VL: B1 VL with D60Q
notes: one-arm IgG1
B13: CE115HA000/GLS3000 G89K (antibody, IgG1, name in Kabat numbering, V domains shown)
VH: B1 VH
VL: B1 VL with D60F, G94K
notes: one-arm IgG1
B14: CE115HA000/GLS3000 F55I (antibody, IgG1, name in Kabat numbering, V domains shown)
VH: B1 VH
VL: B1 VL with D60I
notes: one-arm IgG1
B15: CE115HA000/GLS3000 G91E (antibody, IgG1, name in Kabat numbering, V domains shown)
VH: B1 VH
VL: B1 VL with D60F, G96E
notes: one-arm IgG1
B16: CE115HA000/GLS3000 G89P (antibody, IgG1, name in Kabat numbering, V domains shown)
VH: B1 VH
VL: B1 VL with D60F, G94P
notes: one-arm IgG1
B17: CE115HA000/GLS3000 G91P (antibody, IgG1, name in Kabat numbering, V domains shown)
VH: B1 VH
VL: B1 VL with D60F, G96P
notes: one-arm IgG1
B18: CE115HA000/GLS3000 G91Y (antibody, IgG1, name in Kabat numbering, V domains shown)
VH: B1 VH
VL: B1 VL with D60F, G96Y
notes: one-arm IgG1
B19: CE115HA000/GLS3000 F55K (antibody, IgG1, name in Kabat numbering, V domains shown)
VH: B1 VH
VL: B1 VL with D60K
notes: one-arm IgG1
B20: CE115HA000/GLS3000 F55S (antibody, IgG1, name in Kabat numbering, V domains shown)
VH: B1 VH
VL: B1 VL with D60S
notes: one-arm IgG1
B21: CE115HA000/GLS3000 F55P (antibody, IgG1, name in Kabat numbering, V domains shown)
VH: B1 VH
VL: B1 VL with D60P
notes: one-arm IgG1
B22: CE115HA000/GLS3000 F55V (antibody, IgG1, name in Kabat numbering, V domains shown)
VH: B1 VH
VL: B1 VL with D60V
notes: one-arm IgG1
B23: CE115HA000/GLS3000 F55T (antibody, IgG1, name in Kabat numbering, V domains shown)
VH: B1 VH
VL: B1 VL with D60T
notes: one-arm IgG1
B24: CE115HA000/GLS3000 F55L (antibody, IgG1, name in Kabat numbering, V domains shown)
VH: B1 VH
VL: B1 VL with D60L
notes: one-arm IgG1
B25: CE115HA000/GLS3000 G89W (antibody, IgG1, name in Kabat numbering, V domains shown)
VH: B1 VH
VL: B1 VL with D60F, G94W
notes: one-arm IgG1
B26: CE115HA000/GLS3000 H27dA (antibody, IgG1, name in Kabat numbering, V domains shown)
VH: B1 VH
VL: B1 VL with H31A, D60F
notes: one-arm IgG1
B27: CE115HA000/GLS3000 F55W (antibody, IgG1, name in Kabat numbering, V domains shown)
VH: B1 VH
VL: B1 VL with D60W
notes: one-arm IgG1
B28: CE115HA000/GLS3000 F55G (antibody, IgG1, name in Kabat numbering, V domains shown)
VH: B1 VH
VL: B1 VL with D60G
notes: one-arm IgG1
B29: CE115HA000/GLS3000 G91D (antibody, IgG1, name in Kabat numbering, V domains shown)
VH: B1 VH
VL: B1 VL with D60F, G96D
notes: one-arm IgG1
B30: CE115HA000/GLS3000 G89R (antibody, IgG1, name in Kabat numbering, V domains shown)
VH: B1 VH
VL: B1 VL with D60F, G94R
notes: one-arm IgG1
B31: CE115HA000/GLS3000 G89D (antibody, IgG1, name in Kabat numbering, V domains shown)
VH: B1 VH
VL: B1 VL with D60F, G94D
notes: one-arm IgG1
B32: CE115HA000/GLS3000 F55M (antibody, IgG1, name in Kabat numbering, V domains shown)
VH: B1 VH
VL: B1 VL with D60M
notes: one-arm IgG1
B33: CE115HA000/GLS3000 G89N (antibody, IgG1, name in Kabat numbering, V domains shown)
VH: B1 VH
VL: B1 VL with D60F, G94N
notes: one-arm IgG1
B34: CE115HA000/GLS3000 G89M (antibody, IgG1, name in Kabat numbering, V domains shown)
VH: B1 VH
VL: B1 VL with D60F, G94M
notes: one-arm IgG1
B35: CE115HA000/GLS3000 H27dF (antibody, IgG1, name in Kabat numbering, V domains shown)
VH: B1 VH
VL: B1 VL with H31F, D60F
notes: one-arm IgG1
B36: CE115HA000/GLS3000 G89T (antibody, IgG1, name in Kabat numbering, V domains shown)
VH: B1 VH
VL: B1 VL with D60F, G94T
notes: one-arm IgG1
B37: CE115HA000/GLS3000 G89I (antibody, IgG1, name in Kabat numbering, V domains shown)
VH: B1 VH
VL: B1 VL with D60F, G94I
notes: one-arm IgG1
B38: CE115HA000/GLS3000 G89Y (antibody, IgG1, name in Kabat numbering, V domains shown)
VH: B1 VH
VL: B1 VL with D60F, G94Y
notes: one-arm IgG1
B39: CE115HA000/GLS3000 G89V (antibody, IgG1, name in Kabat numbering, V domains shown)
VH: B1 VH
VL: B1 VL with D60F, G94V
notes: one-arm IgG1
B40: CE115HA000/GLS3000 F55E (antibody, IgG1, name in Kabat numbering, V domains shown)
VH: B1 VH
VL: B1 VL with D60E
notes: one-arm IgG1
B41: CE115HA000/GLS3000 G89Q (antibody, IgG1, name in Kabat numbering, V domains shown)
VH: B1 VH
VL: B1 VL with D60F, G94Q
notes: one-arm IgG1
B42: CE115HA000/GLS3000 F55Y (antibody, IgG1, name in Kabat numbering, V domains shown)
VH: B1 VH
VL: B1 VL with D60Y
notes: one-arm IgG1
B43: CE115HA000/GLS3000 F55H (antibody, IgG1, name in Kabat numbering, V domains shown)
VH: B1 VH
VL: B1 VL with D60H
notes: one-arm IgG1
B44: CE115HA000/GLS3000 G89A (antibody, IgG1, name in Kabat numbering, V domains shown)
VH: B1 VH
VL: B1 VL with D60F, G94A
notes: one-arm IgG1

What follows are binders tested against T1, CD3 epsilon homodimer protein (UniProt P07766 23-126) (assay: SPR, antibody over immobilised CD3e homodimer;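 note: SPR at 25 °C with CD3 epsilon homodimer amine-coupled to a CM4 sensor chip and antibody flowed over as analyte in HBS-EP+ running buffer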).
T1 construct: also called CD3 (CD3 epsilon)
T1 sequence (P07766 23-126): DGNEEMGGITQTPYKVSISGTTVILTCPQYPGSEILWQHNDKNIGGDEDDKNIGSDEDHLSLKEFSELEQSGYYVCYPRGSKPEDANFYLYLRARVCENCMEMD

| Binder | KD ratio to GLS3000 |
| --- | --- |
| B1 | 1.02 |
| B2 | 3.51 |
| B3 | 2.38 |
| B4 | 39.9 |
| B5 | 1.27 |
| B6 | 42.3 |
| B7 | 1.44 |
| B8 | 34.6 |
| B9 | 3.34 |
| B10 | 28.1 |
| B11 | 0.91 |
| B12 | 1.09 |
| B13 | 1.8 |
| B14 | 1.28 |
| B15 | 48.5 |
| B16 | 1.8 |
| B17 | 23.1 |
| B18 | 33.8 |
| B19 | 1.55 |
| B20 | 1.15 |
| B21 | 1.15 |
| B22 | 1.12 |

| Binder | KD ratio to GLS3000 |
| --- | --- |
| B23 | 2.42 |
| B24 | 1.43 |
| B25 | 2.2 |
| B26 | 2.57 |
| B27 | 1.72 |
| B28 | 1.15 |
| B29 | 44.8 |
| B30 | 4130 |
| B31 | 1.96 |
| B32 | 1.29 |
| B33 | 1.2 |
| B34 | 1.96 |
| B35 | 2.05 |
| B36 | 1.1 |
| B37 | 1.11 |
| B38 | 1.12 |
| B39 | 1.4 |
| B40 | 0.92 |
| B41 | 2.11 |
| B42 | 1.13 |
| B43 | 1.02 |
| B44 | 1.1 |
